Assays:
[1] = Particle size, polydispersity and zeta-potential by dynamic light scattering; assay type: physicochemical
Protocol: Nanoparticle carrier particles were formed by the methods of the preceding Example, and characterized as follows. The particle size and the zeta-potential were measured using Zeta Plus zeta-potential analyzer (Brookhaven Instruments Ltd., New York, N.Y.), which employs the dynamic light scattering technique for particle size measurement. The particle size and zeta-potential measurements were made after 1:1000 dilution of particle stock in filtered deionized water. Further, the particles were visualized using a transmission electron microscope (TEM). The carbon-coated grids were floated on a suspension droplet of plain or functionalized nanoparticles on a flexible plastic film (Parafilm, Pechiney Plastic Packaging, Neenah, Wis.) to allow the adsorption of nanoparticles onto the grid. After drying the particles, uranyl acetate was added as a negative stain to the carbon grid and allowed to react with the particles. This procedure makes the particles electron dense, allowing their visualization using an electron microscope. The particles were photographed using EM410 Phillips electron microscope (Eindhoven, The Netherlands) set at 60 kV and a magnification of 153000×.
Characterization of particles: The particle size and the zeta-potential were measured using ZetaPlus® zeta-potential analyzer, Brookhaven Instruments Ltd. (New York, N.Y.), which employs the dynamic light scattering technique for particle size measurement. The particle size and zeta-potential measurements were carried out after 1:1000 dilution of particle stock in filtered deionized water before lyophilization in filtered deionized water. The effective diameter of conjugated nanoparticles was higher than that of unconjugated nanoparticles.
Particle Size Analysis: Particle size and zeta-potential of the nanoparticles before and after conjugation following lyophilization were measured in double distilled water (100 μl of particle/1 ml of water) using dynamic light scattering (DLS). After lyophilization the plasmid loaded particles were weighed (1 mg) into glass Kimble tubes. To each tube, 1 ml of double distilled water was added and vortexed at high speed (Vortex Genie, Scientific Industries, Bohemia, N.Y.) till the particles were resuspended. The particle size and zeta potential was determined using dynamic light scattering after dilution (1:10 in double distilled water) (Brookhaven Instruments Corp., Holtsville, N.Y.). Nanoparticle size after lyophilization was 210.4±0.68 nm and zeta potential was −32.85±0.87 mV. Nanoparticle size and zeta potential was measured after conjugation with deslorelin and transferrin. Similarly, the unconjugated nanoparticles were also treated under the same conditions as with the conjugated nanoparticles (the conjugation protocol as mentioned above).
(§1) Transport studies were conducted in bovine nasal tissue. Bovine nasal tissue was obtained from freshly slaughtered cattle, and different regions (MTA, MTP, ITP) were prepared as described in Example 13. Nanoparticles coupled to deslorelin or transferring via aldehyde sulfate moieties were prepared as described in Example 3. The nanoparticle size was measured using a Zeta Plus Analyzer (Brookhaven Instruments Limited, UK). Particle size was analyzed before and after ligand conjugation in deionized filtered water.

[2] = tested on: excised bovine nasal tissue (MTA, MTP, ITP regions); assay: Nanoparticle transport and uptake across excised bovine nasal tissue (Ussing chambers); assay type: in vitro ADME; conditions: for Remaining in Donor / Total / Washes: mass balance; for Tissue Uptake / Transport: mass balance after 4 hr transport; for decrease in transport on co-treatment with free ligand / decrease in uptake on co-treatment with free ligand: m:s
Protocol: as §1
The tissues were exposed to 5 ml of assay buffer with either peptide conjugated or plain nanoparticles on the donor side (mucosal or serosal surface). Assay buffer (5 ml) without particles was exposed to the receiver side (serosal or mucosal surface). The buffers used were pre-equilibrated to 37° C. or 4° C. The donor nanoparticle concentration was 20 or 100 μg/ml. […] Donor samples were collected at the beginning (replenished with particle stock suspension) and at the end of the experiment. The samples were collected in polypropylene tubes, capped, and stored at 4° C. until analysis. The aperture/tissue area exposed to the bathing fluids in this set up was 1.78 cm^2.
Nanoparticle Uptake: At the end of 4 hr in the above transport studies, the tissues exposed (1.78 cm^2) to the nanoparticle suspension were cut and washed thrice using 1 ml of assay buffer at pH 5. After the washes, the tissues were weighed and placed in 1 ml of 2% Triton-X 100™ and homogenized until a tissue suspension was formed using the Tissue Tearor™. The tissue debris was separated by centrifugation at 3000 rpm (Marathon Micro A, Fisher Scientific, Pittsburgh, Pa.) for 10 min. The supernatant was collected to analyze the amount of nanoparticles taken up by the tissue. Standard curves were prepared by homogenizing serial dilution of the stock solution with approximately 100-150 mg of nasal tissue. The homogenates were then centrifuged and the supernatant was analyzed.
Nanoparticle Transport and Uptake: Competition with Free Ligand: Similar to the transport and uptake studies mentioned above, the competition study was carried out using the modified Ussing chambers. The tissues were exposed to 20 μg/ml of nanoparticles conjugated with deslorelin or transferrin in the presence of 10 times (200 μg/ml) of plain deslorelin or transferrin in the donor chamber. Receiver samples were obtained at various intervals up to 4 hr and replaced with pre-warmed assay buffer. At the end of 4 hr the tissue region exposed to the nanoparticle preparation was cut and washed in assay buffer at pH 5. The tissues were then homogenized and centrifuged. The supernatants were analyzed to determine nanoparticle uptake.
Nanoparticle Quantification: The samples obtained from the transport studies, washes and supernatants of tissue homogenates were analyzed for nanoparticle content using a spectrofluorometer (Cary Eclipse, Varian Inc.). The excitation wavelength of 505 nm and an emission wavelength of 515 nm were used. Bandwidths of 3 or 5 nm were used for the sample analysis after dilution as required. The procedure used for extraction of the nanoparticles was performed as mentioned in the methods section under nanoparticle uptake. […] Briefly, similar amounts of tissues (weighed to match weight of tissues obtained from the transport experiment) were spiked with serially diluted stock nanoparticle suspensions (0.3 μg/ml-100 μg/ml) prepared in 2% Triton-X 100™. The tissues were homogenized, centrifuged and the supernatant obtained was used for standards. Standard curves were also prepared in assay buffer and acid wash buffer.

[3] = 20 μg/ml nanoparticles + 200 μg/ml free ligand, ITP
[4] = 20 μg/ml nanoparticles + 200 μg/ml free ligand, MTP

## Transferrin-AS: transferrin-aldehyde sulphate-conjugated polystyrene nanoparticles
[1]; Table 2, polystyrene nanoparticles
  Zeta potential: −20.62 ± 0.82 mV
[1]; Table 2, polystyrene nanoparticles, 1:1000 dilution in filtered deionized water, includes hydrodynamic layer, n = 3
  Measured Diameter: 67.5 ± 1.0 nm
[1]; Table 6
  Zeta potential: −20.62 ± 0.82 mV
[1]; Table 6, 1:1000 dilution in filtered deionized water
  Effective diameter: 67.5 ± 1.0 nm
[2]; ITP
  transport in the s:m direction greater than in the m:s direction: 10%
  Remaining in Donor: 94.51 ± 1.10%
  Total: 98.62 ± 1.13%
  Washes: 0.75 ± 0.10%
  Tissue Uptake: 3.98 ± 0.10%
  Transport: 1.97 ± 0.05%
[2]; MTA
  transport in the s:m direction greater than in the m:s direction: 16%
  uptake, times higher than plain nanoparticles: 3.6 times
  Remaining in Donor: 93.06 ± 0.99%
  Total: 98.77 ± 0.95%
  Washes: 0.50 ± 0.13%
  Tissue Uptake: 2.13 ± 0.13%
  Transport: 1.13 ± 0.07%
[2]; MTA, MTP and ITP regions
  percent transport as well as uptake, times higher than deslorelin-nanoparticles: 1.3-1.4 times
[2]; MTP
  transport in the s:m direction greater than in the m:s direction: 17%
  uptake, times higher than plain nanoparticles: 2.9 times
  Remaining in Donor: 92.14 ± 2.20%
  Total: 98.99 ± 0.52%
  Washes: 0.60 ± 0.11%
  Tissue Uptake: 2.99 ± 0.14%
  Transport: 1.52 ± 0.11%
[2]; m:s direction, ITP
  decrease in uptake at 4° C. compared to 37° C.: 77%
  percent transport, times higher than plain nanoparticles: ~1.8 times
[2]; m:s direction, MTA
  decrease in uptake at 4° C. compared to 37° C.: 58%
  percent transport, times higher than plain nanoparticles: approximately 3.3 times
[2]; m:s direction, MTP
  decrease in uptake at 4° C. compared to 37° C.: 70%
  percent transport, times higher than plain nanoparticles: ~2.1 times
[2]; [3]
  decrease in transport on co-treatment with free ligand: 25%
  decrease in uptake on co-treatment with free ligand: 44%
[2]; 20 μg/ml nanoparticles + 200 μg/ml free ligand, MTA
  decrease in uptake on co-treatment with free ligand: 43%
[2]; [4]
  decrease in transport on co-treatment with free ligand: 33%
  decrease in uptake on co-treatment with free ligand: 45%
[2]; 20 μg/ml nanoparticles + 200 μg/ml plain deslorelin or transferrin, MTA
  decrease in transport on co-treatment with free ligand: 22%
[2]; s:m direction, ITP
  decrease in uptake at 4° C. compared to 37° C.: 80%
[2]; s:m direction, MTA
  decrease in uptake at 4° C. compared to 37° C.: 65%
[2]; s:m direction, MTP
  decrease in uptake at 4° C. compared to 37° C.: 75%

Source: patent publication US8821943B2, “Methods and compositions for targeted delivery of therapeutic agents” (Board of Regents of the University of Nebraska, priority 2006, dated 2014)
